Biological target: HCoV-OC43 Spike antigen (HCoV-OC43) (UniProt P36334)
Assay: SEC-MALS

HCoV-OC43 Spike antigen (from UniProt P36334 14-1353) (natural protein)
stoichiometry N: 3
